# Measurements as given in the RNAGym collection of RNA variant scans (doi:10.7554/elife.80360).
# B1: Twister Ribozyme (parent)
# chain: AACACUGCCAAUGCCGGUCCCAAGCCCGGAUAAAAGUGGAGGGGGCGG
# Variants of: B1
# Assay: self-cleavage, relative activity (ratio to wild type); higher = more cleavage; co-transcriptional
row,Variant,self-cleavage
1,C8U C14U,0.791
2,C8U C14A,0.63
3,C8U C14G,0.0673
4,C8U C21A,0.0385
5,C9A G24A,0.0968
6,C9A G24U,0.111
7,C9G C15U,0.479
8,C8G C14G,0.0524
9,C8G C14A,0.495
10,C9A C46A,0.426
11,C9A C46U,0.758
12,C9U G17A,0.0711
13,C9U G24C,0.0718
14,C9U G24A,0.0648
15,A10C A35G,0.965
16,C8G G44C,0.177
17,C8U A40C,0.202
18,C8U A40U,0.17
19,A10C A23U,0.664
20,A10C A23C,0.242
21,C8G U18G,0.0605
22,C8G U18C,0.0751
23,C9A A30C,0.608
24,C9A A30U,0.725

row,Variant,self-cleavage
1,C9A A30G,0.846
2,C9U G45A,0.547
3,C9U G45U,0.328
4,C8U A11G,0.551
5,C9U G36A,0.281
6,C9U G36U,0.164
7,C8G A34C,0.121
8,C8G A34G,0.276
9,C8G A34U,0.553
10,C8U G17A,0.119
11,C8U G17U,0.0946
12,C8U G17C,0.0682
13,C8U C19G,0.0901
14,C8U C19A,0.0797
15,C9G C20U,0.23
16,C8U G47A,0.43
17,C8U G47C,0.199
18,C8U G47U,0.345
19,A10C A30C,0.884
20,A10C A30G,0.969
21,C9U C21U,0.0907
22,C9U C21G,0.0888
23,C8U G13U,0.103
24,C9U C25A,0.1

row,Variant,self-cleavage
1,C9U C25U,0.404
2,C9A G48U,0.451
3,C9A G48A,0.357
4,C9A G48C,0.541
5,C9G A23U,0.0839
6,C9G A23G,0.0809
7,C9A A34U,0.535
8,C9A A34G,0.501
9,C8G C21G,0.0605
10,C9G G13U,0.933
11,C9G G13A,1.07
12,C9G G13C,0.876
13,C9G G48A,0.443
14,C9G G48C,0.511
15,C9U C19G,0.101
16,C9U U31G,0.69
17,C8U C46G,0.567
18,C8U C46U,0.726
19,C8U C46A,0.5
20,C9A C26U,0.06
21,C9G G41U,0.122
22,C9G G41C,0.145
23,C8U A23G,0.107
24,C8U A23U,0.078

row,Variant,self-cleavage
1,C9U G41U,0.187
2,C9U G41A,0.121
3,C8U G28C,0.469
4,C8U G28A,0.446
5,C9A G13C,0.729
6,C9A G13A,1.09
7,C8U G44A,0.658
8,C8U G44C,0.598
9,C8G G24A,0.203
10,C8G G24C,0.993
11,A10C A33C,1.14
12,C9A U12C,0.795
13,C9A A32G,0.729
14,C9A A32C,0.665
15,C9U,0.754
16,C9A,0.776
17,C9G,0.733
18,C9A C25G,0.0787
19,C9A C25U,0.185
20,C9G G24C,0.0967
21,C9G G24U,0.0888
22,C8U G42C,0.217
23,C8U C20U,0.308
24,C8U C20G,0.0649

row,Variant,self-cleavage
1,C9A U31A,0.72
2,C9A A23G,0.055
3,C9A G39U,0.131
4,C9A G39A,0.167
5,C9U A35C,0.636
6,C9U A35G,0.615
7,C9G A35G,0.591
8,C9G A35U,0.695
9,C8U G24A,0.772
10,C8U G24C,0.0664
11,C9U A30C,0.526
12,C9U A30G,0.865
13,C9G A22U,0.187
14,C9G A22C,0.708
15,C9G A22G,0.0988
16,C9G C27U,0.326
17,C9G C27A,0.098
18,C9G C27G,0.0899
19,C8U G36C,0.106
20,C8U G36A,0.18
21,C8U G36U,0.109
22,C9G G43C,0.132
23,C9G G43A,0.123
24,C9A G36C,0.107

row,Variant,self-cleavage
1,C9U G42U,0.102
2,C9U G42C,0.193
3,C8U G16C,0.199
4,C8U G16A,0.442
5,C8U G16U,0.459
6,C8U C9A,0.112
7,A10C C21G,0.0689
8,C8U A32G,0.385
9,C8U A32U,0.515
10,C9U A33C,0.601
11,C9U A33G,0.548
12,C9U A33U,0.751
13,C9G G42C,0.199
14,C9G G42A,0.12
15,C8G G17A,0.0824
16,C8G G17C,0.07
17,C8G G17U,0.0532
18,C8G C19A,0.0465
19,C8G C19G,0.0626
20,C8G G48C,0.272
21,C8G G48U,0.263
22,A10C A32U,0.892
23,A10C A32G,0.971
24,C9A G42C,0.288

row,Variant,self-cleavage
1,C9G U31A,0.648
2,C9A A33G,0.522
3,C9A A33U,0.638
4,C9U G28C,0.549
5,C9G A34U,0.47
6,C8U,0.777
7,C9A G44A,0.664
8,C9A G44C,0.425
9,C8G A33C,0.203
10,C8G C25G,0.0929
11,C8G C25A,0.0886
12,C8U G38A,0.572
13,C8U G38U,0.481
14,C9G G36U,0.137
15,C9G G36C,0.148
16,C9G U12C,0.812
17,C9G U12G,0.492
18,C9G C25U,0.194
19,C9G C25A,0.0478
20,C9G C25G,0.0708
21,C9G G44C,0.395
22,C9U U12G,0.501
23,C9U U12A,0.794
24,C9A G38C,0.589

row,Variant,self-cleavage
1,C9A G38A,0.393
2,C8G C20A,0.11
3,C8G C20G,0.0475
4,C9U C27A,0.064
5,C9G A11C,0.764
6,C8G C9U,0.0635
7,C8G C9G,0.107
8,C9A G16C,0.087
9,C9A G16A,0.372
10,C9U C15A,0.22
11,C9U C15U,0.594
12,C9U C46G,0.651
13,C9U C46A,0.549
14,C8G G28A,0.0928
15,C8U G48C,0.652
16,C8U G48A,0.45
17,C9A G17U,0.0549
18,C9A G17C,0.0631
19,C9G G47C,0.186
20,C9G G47U,0.278
21,C9G G47A,0.38
22,C9U C14G,0.0927
23,C9A A40G,0.129
24,C9U G39C,0.151

row,Variant,self-cleavage
1,C9U G39U,0.115
2,C8G U31A,0.472
3,C8G U31C,0.497
4,C8G G39C,0.135
5,C8G G39A,0.0973
6,C8G U12C,0.435
7,C8G U12A,0.609
8,A10C C25U,0.782
9,A10C C25G,0.31
10,A10C C25A,0.0743
11,C9A C15U,0.567
12,C9A C15A,0.35
13,C9A A35G,0.548
14,C9A A35C,0.66
15,C9A A35U,0.628
16,C9U A10G,0.872
17,C8U G29C,0.117
18,A10C C19G,0.309
19,C9A G43A,0.153
20,C9A G43U,0.149
21,C8U A35G,0.559
22,C8U G45U,0.313
23,C9U A32G,0.729
24,C9G U37G,0.327

row,Variant,self-cleavage
1,C9G C21G,0.115
2,C9G C21U,0.0793
3,C9A G41C,0.123
4,C9A G41A,0.145
5,C8U G39C,0.147
6,C8U A30G,0.766
7,C8U A30C,0.15
8,C9U A34G,0.3
9,C9U A34U,0.477
10,C9A C14A,0.61
11,C9A C14U,0.697
12,C9G G17C,0.0619
13,C9G G17U,0.0981
14,C9G U18C,0.0886
15,C9G U18G,0.0467
16,C9G U18A,0.108
17,C9U G48C,0.795
18,C9U G48A,0.491
19,C9U G48U,0.646
20,C8U A22C,0.863
21,C9U G47C,0.235
22,A10C C14U,1.01
23,A10C C14G,0.289
24,C8U A10G,0.655

row,Variant,self-cleavage
1,C8U A10C,0.755
2,C8U A10U,0.582
3,C9U G29U,0.606
4,C9U G29C,0.242
5,C8G C26A,0.0716
6,C8G C26U,0.0555
7,A10C A22C,0.993
8,C8G G42C,0.221
9,C8G G42A,0.131
10,C9A U18C,0.0799
11,C9A U18A,0.0887
12,C8G A32U,0.322
13,C9U A23C,0.0976
14,C8G C27G,0.0686
15,C8U G43U,0.131
16,C9G G39C,0.132
17,C9G C26A,0.115
18,C9G C26G,0.083
19,C9G C26U,0.0719
20,C9A G28C,0.636
21,C9A G28A,0.598
22,C9A G28U,0.53
23,C8G U37C,0.131
24,C8G U37G,0.108

row,Variant,self-cleavage
1,C8G U37A,0.115
2,C9G A32U,0.517
3,C8G G38C,0.145
4,C8G G38U,0.158
5,C9U A11C,0.736
6,C8G G16U,0.108
7,C9G G38C,0.4
8,C9G G38A,0.278
9,C8G A40C,0.157
10,C8G A40U,0.0905
11,C8G C15U,0.534
12,C8G C15A,0.0877
13,C9A C27U,0.304
14,C9A C27G,0.0551
15,C9A C27A,0.103
16,C9G C46G,0.576
17,C8G G41A,0.179
18,C8G G41C,0.122
19,C9A A10G,0.648
20,C9A A10U,0.646
21,C9A A10C,0.574
22,C9G G45C,0.171
23,C9G G45U,0.205
24,C9G G16A,0.329

row,Variant,self-cleavage
1,C9G G16C,0.0741
2,C9U G38A,0.177
3,C9U G38C,0.509
4,C9A U37C,0.16
5,C9A G45A,0.41
6,C9A G45C,0.131
7,C8U U31G,0.603
8,C8U U31A,0.592
9,C8U U18A,0.0657
10,C8U U37C,0.284
11,C8U U37A,0.307
12,C9A C20G,0.0801
13,C8G G47C,0.186
14,C8G G47A,0.208
15,C8G G47U,0.142
16,C9U G43C,0.151
17,C8U C15A,0.318
18,C8U C15G,0.0382
19,C8U C15U,0.768
20,C8G C46U,0.424
21,C8G G36C,0.119
22,C9A C19G,0.0837
23,C9A C19A,0.089
24,C9A A22C,0.642

row,Variant,self-cleavage
1,C9A A22G,0.101
2,C9A A22U,0.259
3,C9G C14U,0.624
4,C9G C14A,0.536
5,C8U C26G,0.0721
6,C8U C26U,0.061
7,C9U G13U,0.826
8,C9G A30C,0.649
9,C9G A30U,0.62
10,C8U U12C,0.753
11,C8U U12A,0.825
12,C8U G41U,0.117
13,C8U G41C,0.0951
14,C8G G29A,0.3
15,C8G G29U,0.156
16,C8G G29C,0.077
17,A10C A40G,0.181
18,A10C A40U,0.155
19,C8G G13U,0.194
20,C9U G16C,0.13
21,A10C C20U,0.941
22,A10C C20G,0.0778
